According to publication PMC11615384, “Frequent transitions in self-assembly across the evolution of a central metabolic enzyme” (Nature Communications, 2024):
Several values for one entry are separate records, joined by “and”; a condition that tells them apart may be missing. Equal entries are not always repeated.

How the values were obtained:
[1] = target: T1, CS from A. comosus (nmCS) (Ananas comosus, UniProt A0A6P5F0R3); assay: mass photometry, oligomeric state shift; format: binding; details: 10 min preincubation with high acetyl-CoA; octamers shift to mix of hexamers and octamers
T1 construct: gene LOC109710921; non-mitochondrial CS with C-terminal LE-HHHHHH tag, expressed in E. coli BL21(DE3); octamer (ring of four dimers); C-terminus extends to residue 513
T1 sequence (A0A6P5F0R3 entry or part of it): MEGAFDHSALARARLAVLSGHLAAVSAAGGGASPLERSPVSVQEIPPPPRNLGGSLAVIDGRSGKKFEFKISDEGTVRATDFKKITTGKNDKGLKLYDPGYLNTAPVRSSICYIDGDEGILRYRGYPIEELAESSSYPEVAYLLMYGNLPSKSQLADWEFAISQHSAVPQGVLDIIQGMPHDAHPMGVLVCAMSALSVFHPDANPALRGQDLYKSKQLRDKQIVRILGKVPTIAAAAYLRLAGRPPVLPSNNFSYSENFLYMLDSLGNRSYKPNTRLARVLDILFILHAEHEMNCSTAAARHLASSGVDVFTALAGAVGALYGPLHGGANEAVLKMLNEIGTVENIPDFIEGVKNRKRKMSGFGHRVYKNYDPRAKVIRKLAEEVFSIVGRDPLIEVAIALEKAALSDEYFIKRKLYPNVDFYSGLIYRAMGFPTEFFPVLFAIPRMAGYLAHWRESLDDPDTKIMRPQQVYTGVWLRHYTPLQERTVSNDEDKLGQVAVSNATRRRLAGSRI

[2] = target: CS from a Myxococcota species (a Myxococcota species); assay: mass photometry; self-assembly of the purified protein in solution; final concentration 12.5 to 50 nM; PBS or 20 mM Tris, 200 mM NaCl pH 7.5; OneMP or TwoMP
[3] = target: citrate synthase (type III CS) from M. sulfidovorans (M. sulfidovorans); assay: as above
[4] = target: citrate synthase from M. sulfidovorans W150A (M. sulfidovorans); assay: as above
[5] = target: non-mitochondrial citrate synthase (nmCS) of Ananas comosus (Ananas comosus); assay: as above
[6] = target: non-mitochondrial citrate synthase (nmCS) of Ananas comosus (Ananas comosus); assay: mass photometry; with high quantities of acetyl-CoA: prediluted protein (2 µM) incubated for 10 min with the substrate, same concentration in the buffer of the gasket
[7] = target: non-mitochondrial citrate synthase (nmCS) of C. fasciculata (C. fasciculata); assay: mass photometry; self-assembly of the purified protein in solution; final concentration 12.5 to 50 nM; PBS or 20 mM Tris, 200 mM NaCl pH 7.5; OneMP or TwoMP
[8] = target: non-mitochondrial citrate synthase (nmCS) of Chlamydomonas reinhardtii (Chlamydomonas reinhardtii); assay: as above
[9] = target: type II citrate synthase of C. woesi (C. woesi); assay: as above
[10] = target: type II citrate synthase of F. taffensis (F. taffensis); assay: as above
[11] = target: the molecule itself; assay: as above
[12] = substrate: O=C(O)CC(=O)C(=O)O; assay: purified protein; format: biochemical, Deinococcus pimensis; details: 50 mM Tris pH 7.5, 10 mM KCl, 25 °C, 25 nM enzyme, unseparated sample, varied substrate not named in main text
[13] = substrate: O=C(O)CC(=O)C(=O)O; assay: purified protein; format: biochemical, Methylophaga sulfidovorans; details: 50 mM Tris pH 7.5, 10 mM KCl, 25 °C, 25 nM enzyme, varied substrate not named in main text

CC(=O)SCCNC(=O)CCNC(=O)[C@H](O)C(C)(C)COP(=O)(O)OP(=O)(O)OC[C@H]1O[C@@H](n2cnc3c(N)ncnc32)[C@H](O)[C@@H]1OP(=O)(O)O [acetyl-CoA]
mass photometry, oligomeric state shift [1]: shift the oligomeric state of the CS from A. comosus from octamers

CS from a Myxococcota species (enzyme)
stoichiometry N [2]: 2

citrate synthase (type III CS) from M. sulfidovorans (enzyme)
stoichiometry N [3]: 6

citrate synthase from M. sulfidovorans W150A (enzyme)
stoichiometry N [4]: 2

non-mitochondrial citrate synthase (nmCS) of Ananas comosus (enzyme)
stoichiometry N [5]: 8 | stoichiometry N [6]: 6 and 8

non-mitochondrial citrate synthase (nmCS) of C. fasciculata (enzyme)
stoichiometry N [7]: 6

non-mitochondrial citrate synthase (nmCS) of Chlamydomonas reinhardtii (enzyme)
stoichiometry N [8]: 2

type II citrate synthase of C. woesi (enzyme)
stoichiometry N [9]: 2

type II citrate synthase of F. taffensis (enzyme)
stoichiometry N [10]: 2

B1: non-mitochondrial citrate synthase (nmCS) of P. olsenii (enzyme)
chain: MDRLNTVAAHVAPTLTITDNRSGKKIDVKVKDGTIRATDLKQLGIQTYDPGYMNTTCCVSRISFIDGNRGVLRYRGYPIEQLAQDSSFTEVAFLLQYGELPTRGQLTQWEQDLMRHSMLHQDVATLTSAFRYDAHPMGMFVSAMAALGTLHPETNPALTSQNIYKDKAVRNKEIARILGSATTLAAMAYRHRMGRPFNTPNSDLGYTENFLYMLDVSHEGTSYRPHPKLVKALDVLFVLHAEHELNCSTSAMRHLTSSNVDVYTACAAAAGALYGPRHGGANEAVLRMLERIGSIENVPTFVDKVKQRKELLMGFGHRVYKHYDPRATIVRKIAEDVFEICGREPLIEVAMDLERIALSDPYFKDRKLYPNVDFYSGLIYKAMGFPTDMFPILFTVPRLAGWLAHWSEWIDDPENRIYRPFQVYKGYDKRDYVQVDERSEKVHSKELTVKRSAFNRRRDASLQSAAADRSEYEWIKD
stoichiometry N [11]: 6

B2: A. comosus CS Δ487-513, variant in which the extended C-terminus was deleted (domain or fragment)
chain: MEGAFDHSALARARLAVLSGHLAAVSAAGGGASPLERSPVSVQEIPPPPRNLGGSLAVIDGRSGKKFEFKISDEGTVRATDFKKITTGKNDKGLKLYDPGYLNTAPVRSSICYIDGDEGILRYRGYPIEELAESSSYPEVAYLLMYGNLPSKSQLADWEFAISQHSAVPQGVLDIIQGMPHDAHPMGVLVCAMSALSVFHPDANPALRGQDLYKSKQLRDKQIVRILGKVPTIAAAAYLRLAGRPPVLPSNNFSYSENFLYMLDSLGNRSYKPNTRLARVLDILFILHAEHEMNCSTAAARHLASSGVDVFTALAGAVGALYGPLHGGANEAVLKMLNEIGTVENIPDFIEGVKNRKRKMSGFGHRVYKNYDPRAKVIRKLAEEVFSIVGRDPLIEVAIALEKAALSDEYFIKRKLYPNVDFYSGLIYRAMGFPTEFFPVLFAIPRMAGYLAHWRESLDDPDTKIMRPQQVYTGVWLRHYTPLQERLEHHHHHH
stoichiometry N [11]: 2

B3: CS from D. pimensis (Dp) (Deinococcus pimensis) (protein)
chain: MTTTIAKGLEGVLFTETKLTFINGTEGVLTHLGIPIQEWAEKSTFEELSFALLHGKLPTREELAAFDADLKANRAVPAELITAIRAYPRDVHPMQALRTAASHLGLLDADAEDTSAEGRYRIGVRMIAQFSTIIAAIARAQDGQDPVEPRADLTHAGNFLYMLNGQEPSAEQARLFDIALILHADHGMNASTFTAIATASTLSDMYSSVVSAIGALKGPLHGGANEAVMDMLDEIGTVDAAVPFITQKLDNKEKIMGVGHRVYKYFDPRSRVLRDYAAHVSEKQGKSHYYSILETIEKEIVERLGGKGIYPNVDFYSGVVYSDLGIKKSFFTPIFALARISGWVASVTEYTANNRLLRPDAVYVGARDQHYVEIDERK
notes: full-length with C-terminal LE-HHHHHH tag, expressed in E. coli BL21(DE3); type I CS, polydisperse oligomer (dimers to >=8 subunits)
Km [12]: 25.4 ± 3.1 µM | kcat [12]: 36.6 ± 1.1 s⁻¹

B4: CS from M. sulfidovorans (type III) (Methylophaga sulfidovorans) (protein)
chain: MSDFLPGLEGVPATKSAISFIDGEKGILSYRGYPLETLAENSTFEETTLLLLDGELPTKKALNDFSQQLKDNYRIKYHIRQMMRHFPHTGHPMDMLQTAVSSLGMFYPGTECLTDANSCEDLDYVRNMTVNIIAQMAPLVAMWEHIRNGWDPVNPKHDLSVAENLLYMFNGEEPDPLMAKIMDVCLILHAEHTLNASTFAALVAGSTLATPYSVISAAIGTLSGPLHGGANQRVVGMLQEIGSPKNVESWVDEKLKNKEVIWGMGHREYKVKDPRATILHKLVEQLVAERGGHLDDMFDTALKLEEVCADRLGHKGVYPNVDFYSGILYSEMGIPEDEFTALFAVARSAGWLAHWREQISDNRIYRPTQIYVGSDMRDYTPIEER
notes: full-length with C-terminal LE-HHHHHH tag, expressed in E. coli BL21(DE3); type III CS, hexamer (three dimers)
Km [13]: 50.5 ± 5.2 µM | kcat [13]: 33.3 ± 1.8 s⁻¹

B5: CS from M. sulfidovorans (type III) (Methylophaga sulfidovorans; W150A) (protein)
chain: MSDFLPGLEGVPATKSAISFIDGEKGILSYRGYPLETLAENSTFEETTLLLLDGELPTKKALNDFSQQLKDNYRIKYHIRQMMRHFPHTGHPMDMLQTAVSSLGMFYPGTECLTDANSCEDLDYVRNMTVNIIAQMAPLVAMWEHIRNGADPVNPKHDLSVAENLLYMFNGEEPDPLMAKIMDVCLILHAEHTLNASTFAALVAGSTLATPYSVISAAIGTLSGPLHGGANQRVVGMLQEIGSPKNVESWVDEKLKNKEVIWGMGHREYKVKDPRATILHKLVEQLVAERGGHLDDMFDTALKLEEVCADRLGHKGVYPNVDFYSGILYSEMGIPEDEFTALFAVARSAGWLAHWREQISDNRIYRPTQIYVGSDMRDYTPIEER
notes: as for B4
Km ([13]; dimeric variant): 36.7 ± 5.7 µM | kcat ([13]; dimeric variant): 26.7 ± 1.1 s⁻¹
